Data published in patent publication US10344295B2, “Methods and compositions for providing resistance to glufosinate” (priority 2014, dated 2019).

B1: SEQ ID NO: 7: glufosinate resistance protein from Flavobacterium sp. strain APG00135, encoded by SEQ ID NO: 8 (protein)
chain: MSVILRPATVNDLEKILEIVNHSILHTTANYSYDIQTIEVQTKWFEDKKAKNLPIVVADLDGEVVGFGSYGQFREKIGYQYTVEHSVYVVDNVIGKGIGSKLLTELIRLAKEQGYHVMIGAIDADNAGSITFHEKFGFVATGTIREVGYKFDHWLDLVFMQLILK
modifications: Flavobacterium sp. strain APG00135
B2: SEQ ID NO:1: glufosinate resistance protein from Pseudomonas sp. strain APG00318, encoded by SEQ ID NO: 2 (protein)
chain: MSKTTVRIAQVSDAQAIQAIYAPMVESTTISFELEPPSVEEMAMRIESTLLTYPYLVAVRDGQVIGYAYASQHRAREAYRWSVDVTVYISPEAHRSGVGRALYDVLLPTLKKQGFHAAYAGIALPNDGSVGLHEALGFAHIGTYPEVGFKHGAWRDVGYWRIALDSTNPPKLPVLFSEISLF
modifications: Pseudomonas sp. strain APG00318
B3: SEQ ID NO: 9: glufosinate resistance protein from Serratia sp. strain APG00119, encoded by SEQ ID NO: 10 (protein)
chain: MTTLSAPVLSLLDATPDDMAAVLRIYTQHVLYGAASFEEQPPTLAEMQLRLSKVREAGLPWLVAKSAGVIVGYCYATPYRPRPAYRFTVEDSVYIAEGQQGKGIGRALLSALIARCEQGPWRQMLAIVGDSAANRGSLALHQSLGFTSAGTLKAVGFKLGEWRDTQIMQRALGAGGNRHP
modifications: Serratia sp. strain APG00119

Tests used:
TOP10 E. coli cells = test: minimum inhibitory concentration experiment: growth of E. coli in liquid media with glufosinate; type: cell-based
Protocol: FIG. 1 provides a minimal inhibitory concentration experiment. A polynucleotide encoding SEQ ID NO: 1 was transformed into E. coli cells for protein expression with an N-terminal maltose binding protein. The resulting E. coli clone was analyzed for the ability to grow in the presence of glufosinate.
Predicted ORFs (open reading frames) and protein products from genome sequences of several bacterial isolates were identified. A predicted protein was found with 43.53% identity to the phosphinothricin acetyltransferase (PAT) gene. This gene coding for a new GluR (glufosinate resistance) protein was cloned from that strain and is referred to herein as GluRAP1 and set forth in SEQ ID NO:1 (protein sequence) and 2 (DNA sequence). […] The gene coding for SEQ ID NO: 1 was cloned into the pMAL vector and transformed into TOP10 E. coli cells for protein expression with an N-terminal Maltose Binding Protein. […]
The strain was subsequently grown with success on 100 mM glufosinate-supplemented M63 minimal media; while the gene coding for a new GluR (glufosinate resistance) protein was cloned from that strain and referred to herein as GluRAP and set forth in SEQ ID NO:1 and 2. […] The resulting E. coli clone was analyzed for the ability to grow in the presence of glufosinate. […]

E. coli = test: growth of E. coli expressing MBP fusions under various glufosinate concentrations after IPTG induction (FIG. 3); type: cell-based; settings: compared with the other genes
Protocol: Genes coding for glufosinate-resistant proteins were cloned as MBP (Maltose Binding Protein) fusions and expressed in E. coli. These E. coli strains were grown. The ability of the strains to tolerate and continue to grow in the presence of glufosinate was measured under various glufosinate concentrations upon induction of gene expression by addition of IPTG into the media in which the strains were growing.

soy callus = test: selection of transformed soy callus on medium containing glufosinate; type: cell-based, soybean; settings: medium containing 25 uM glufosinate; construct pSV37; GUS stain confirmed
Protocol: Transgenic plants were selected by incubating callus on medium containing 25 uM glufosinate.
Transgenic plants were selected by incubating callus on medium containing 25 uM glufosinate. […] (FIG. 4) See above for construct pSV37 that carries APG00318 gene.

Molecule	glufosinate concentration tolerated by control E. coli (TOP10 E. coli cells; control E. coli, minimum inhibitory concentration experiments) [mM]	tolerance level to glufosinate of E. coli cultures carrying the gene (E. coli)	glufosinate resistance of transformed soy callus (soy callus)	concentration of glufosinate at which the E. coli clone was able to grow in liquid media (TOP10 E. coli cells; E. coli clone expressing the protein with N-terminal maltose binding protein (pMAL)) [mM]
CP(=O)(O)CCC(N)C(=O)O (stereo not drawn) [glufosinate]	≤ 1	–	–	–
B1	–	higher tolerance level to glufosinate	–	–
B2	–	higher tolerance level to glufosinate	Glufosinate resistance was observed	100
B3	–	higher tolerance level to glufosinate	–	–
